Source: patent publication EP4534554A1 (Corregene Biotechnology Co., Ltd., dated 2025)
Substitutions are numbered along the chain they refer to.

T1: MAGE-A1 peptide on HLA-A*02:01 (human)
T1 peptide: KVLEYVIKV

B1: A1A2-M01-612 (TCR, V domains shown)
Valpha: GEDVEQSLFLSVREGDSSVINCTYVDPYSTYLYWYKQEPGAGLQLLTYIFSFMDMKQDQRLTVLLNKKDKHLSLRIADTQTGDSAIYFCAGSGGGTDKLIFGTGTRLQVFP
Vbeta: GAVVSQHPSWVICKSGTSVKIECRSLDFEATTMFWYRQFPKQSLMLMATSNEGSKATYEQGVEKDKFLINHASLTLSTLTVTSAHPEDSSFYICSAREPWDPWYEQYFGPGTRLTVT
B2: A1A2-M01-613 (TCR, V domains shown)
Valpha: B1 Valpha with V25T, P27S, Y28S, S29L
Vbeta: B1 Vbeta with E29Q, S50T, N51D, E52Y, W100G, D101Q, P102G, W103P, Y104W
B3: A1A2-M01-617 (TCR, V domains shown)
Valpha: B1 Valpha with V25P, P27M, Y28F, S51A, D54Q
Vbeta: B1 Vbeta with S54D, K55Q, W100G, D101Q, P102G, W103P, Y104W
B4: A1A2-M01-616 (TCR, V domains shown)
Valpha: B1 Valpha with V25T, P27S, Y28S, S29Q, S51A, D54Q
Vbeta: B1 Vbeta with S50T, N51D, E52Y, W100G, D101Q, P102G, W103P, Y104W
B5: A1A2-M01-620 (TCR, V domains shown)
Valpha: B1 Valpha with V25T, P27S, Y28S, S29Q, F52N
Vbeta: B1 Vbeta with S50T, N51D, E52Y, W100G, D101Q, P102A, Y104S, E105D
B6: A1A2-M01-614 (TCR, V domains shown)
Valpha: B1 Valpha with V25S, P27M, Y28L, S51I, M53Q, D54A
Vbeta: B1 Vbeta with S50T, N51D, E52Y, W100G, D101Q, P102G, W103P, Y104W
B7: ht27M1285 (TCR, V domains shown)
Valpha: B1 Valpha with V25T, P27S, Y28S
Vbeta: B1 Vbeta with E29Q, W100G, D101Q, P102G, W103P
B8: ht27M1457 (TCR, V domains shown)
Valpha: B1 Valpha with V25T, P27S, Y28S, F52N
Vbeta: B1 Vbeta with E29Q, S50T, N51D, E52Y, W100G, D101Q, P102G, W103P
B9: ht27M1360 (TCR, V domains shown)
Valpha: B1 Valpha with V25T, P27S, Y28S, S51G, M53D, D54T
Vbeta: B1 Vbeta with E29Q, W100G, D101Q, P102G, W103P
B10: ht27M1401 (TCR, V domains shown)
Valpha: B1 Valpha with V25T, P27S, Y28S, F52N
Vbeta: B1 Vbeta with E29Q, S50T, N51Q, E52P, G53L, W100G, D101Q, P102G, W103P
B11: ht27M1362 (TCR, V domains shown)
Valpha: B1 Valpha with V25T, P27S, Y28S, S51I, M53Q, D54Y
Vbeta: B1 Vbeta with E29Q, W100G, D101Q, P102G, W103P
B12: ht27M1374 (TCR, V domains shown)
Valpha: B1 Valpha with V25T, P27S, Y28T, S29D, T30I, Y31L, F52N
Vbeta: B1 Vbeta with E29Q, W100G, D101Q, P102G, W103P
B13: ht27M1363 (TCR, V domains shown)
Valpha: B1 Valpha with V25T, P27S, Y28S, S51N, F52T, M53Q
Vbeta: B1 Vbeta with E29Q, W100G, D101Q, P102G, W103P
B14: ht27M1369 (TCR, V domains shown)
Valpha: B1 Valpha with V25T, P27S, Y28S, S51A, M53E, D54S
Vbeta: B1 Vbeta with E29Q, W100G, D101Q, P102G, W103P
B15: ht27M1290 (TCR, V domains shown)
Valpha: B1 Valpha with V25T, P27S, Y28S, F52N
Vbeta: GAVVSQHPSWVICKSGTSVKIECRSLDFQATTMFWYRQFPKQSLMLMATSNEGSKATYEQGVEKDKFLINHASLTLSTLTVTSAHPEDSSFYICSARVNDGTYEQYFGPGTRLTVT
B16: ht27M1003 (TCR, V domains shown)
Valpha: B1 Valpha with V25T, P27S, Y28S, F52N
Vbeta: B1 Vbeta with E29Q, W100G, D101S, P102G, W103P
B17: ht27M1398 (TCR, V domains shown)
Valpha: B1 Valpha with V25T, P27S, Y28S, F52N
Vbeta: B1 Vbeta with E29Q, S50T, E52L, G53P, W100G, D101Q, P102G, W103P
B18: ht27M1414 (TCR, V domains shown)
Valpha: B1 Valpha with V25T, P27S, Y28S, I49T, F50W, S51P, F52H
Vbeta: B1 Vbeta with E29Q, W100G, D101Q, P102G, W103P
B19: ht27M1436 (TCR, V domains shown)
Valpha: B1 Valpha with V25T, P27S, Y28S, I49T, S51W
Vbeta: B1 Vbeta with E29Q, W100G, D101Q, P102G, W103P
B20: ht27M1387 (TCR, V domains shown)
Valpha: B1 Valpha with V25T, P27S, Y28S, F52N
Vbeta: B1 Vbeta with E29P, A30I, T31E, T32R, W100G, D101Q, P102G, W103P
B21: ht27M1418 (TCR, V domains shown)
Valpha: B1 Valpha with V25T, P27S, Y28S, I49G, F50T, S51W, F52L
Vbeta: B1 Vbeta with E29Q, W100G, D101Q, P102G, W103P
B22: ht27M1557 (TCR, V domains shown)
Valpha: B1 Valpha with V25T, P27S, Y28S, F52N
Vbeta: B1 Vbeta with E29Q, W100G, D101Q, P102E, W103H, Y104L, E105I
B23: ht27M1002 (TCR, V domains shown)
Valpha: B1 Valpha with V25T, P27S, Y28S, F52N
Vbeta: B1 Vbeta with E29Q, W100G, D101G, P102G, W103P
B24: ht27M1365 (TCR, V domains shown)
Valpha: B1 Valpha with V25T, P27S, Y28S, M53T, D54Y
Vbeta: B1 Vbeta with E29Q, W100G, D101Q, P102G, W103P
B25: ht27M1381 (TCR, V domains shown)
Valpha: B1 Valpha with F52N
Vbeta: B1 Vbeta with E29Q, W100G, D101Q, P102G, W103P
B26: ht27M1378 (TCR, V domains shown)
Valpha: B1 Valpha with V25A, P27Y, Y28L, F52N
Vbeta: B1 Vbeta with E29Q, W100G, D101Q, P102G, W103P
B27: A1A2-M01-626 (TCR, V domains shown)
Valpha: B1 Valpha with V25P, P27M, Y28F, S51A, D54Q
Vbeta: GAVVSQHPSWVICKSGTSVKIECRSLDFPIERMFWYRQFPKQSLMLMATTDYGSKATYEQGVEKDKFLINHASLTLSTLTVTSAHPEDSSFYICSAREPGQGPFEQYFGPGTRLTVT
B28: A1A2-M01-619 (TCR, V domains shown)
Valpha: B1 Valpha with V25T, P27S, Y28S, S29M
Vbeta: B27 Vbeta with P29E, I30A, E31T, R32T, F104Y

Target: T1, MAGE-A1 peptide on HLA-A*02:01
Test: KD-SPR estimated from Dextramer MFI by the formula calibrated on gp100 TCRs, not measured; unit inferred; full-length, on cells

Kd | Binder
~0.00294 nM | B1
~0.0338 nM | B2
~0.0432 nM | B3
~0.0186 nM | B4
~0.524 nM | B5
~0.208 nM | B6

The binders below were run against MAGE-A1 Dextramer (human) (assay: KD-SPR estimated from Dextramer staining MFI by the linear formula of Figure 6; not measured by SPR).

Kd | Binder
0.00294 nM | B1
0.0338 nM | B2
0.0432 nM | B3
0.0186 nM | B4
0.524 nM | B5
0.208 nM | B6

Target: T1, MAGE-A1 peptide on HLA-A*02:01
Test: JKR9 reporter + peptide-loaded T2, 16 h; full-length, on cells

EC50 of peptide | Binder
59.3 nM | B7
47.3 nM | B8
60.4 nM | B9
90.5 nM | B10
39.9 nM | B11
109 nM | B12
64 nM | B13
76.6 nM | B14
32.4 nM | B15
1170 nM | B16
52.8 nM | B17
22.5 nM | B18
202 nM | B19
128 nM | B20
10.1 nM | B21
14.9 nM | B22
1360 nM | B23
101 nM | B24
128 nM | B25
74 nM | B26

The binders below were run against MAGE-A1 target antigen peptide … presented by HLA-A*02:01 on cells (human) (assay: cell-based or functional assay).

EC50 Value (M), JKR9 reporter activation by peptide-loaded T2 cells | Binder
2.3e-08 M | B1
2.62e-08 M | B2
2.61e-08 M | B3
3.23e-08 M | B4
2.26e-08 M | B27
2.5e-08 M | B5
2.94e-08 M | B6
2.74e-08 M | B28

Target: MAGE-A1 target antigen peptide … presented by HLA-A*02:01 on cells (human)
Test: cell-based or functional assay
Set-up: EC50 Enhancement Factor: unit not given beside the values
Remark: another data set of the same source

EC50 Enhancement Factor | EC50 Value (M), JKR9 reporter activation by peptide-loaded T2 cells | Binder
281 | 5.93e-08 M | B7
352 | 4.73e-08 M | B8
277 | 6.04e-08 M | B9
184 | 9.05e-08 M | B10
419 | 3.99e-08 M | B11
153 | 1.09e-07 M | B12
261 | 6.4e-08 M | B13
218 | 7.66e-08 M | B14
711 | 3.24e-08 M | B15
14 | 1.17e-06 M | B16
316 | 5.28e-08 M | B17
739 | 2.25e-08 M | B18
82.8 | 2.02e-07 M | B19
131 | 1.28e-07 M | B20
1650 | 1.01e-08 M | B21
1120 | 1.49e-08 M | B22
12 | 1.36e-06 M | B23
165 | 1.01e-07 M | B24
131 | 1.28e-07 M | B25
225 | 7.4e-08 M | B26

Target: T1, MAGE-A1 peptide on HLA-A*02:01
Test: JKR9 reporter + peptide-loaded T2, 16 h; full-length, on cells
Remark: another data set of the same source

EC50 of peptide | Binder
23 nM | B1
26.2 nM | B2
26.1 nM | B3
32.3 nM | B4
22.6 nM | B27
25 nM | B5
29.4 nM | B6
27.4 nM | B28

Target: T1, MAGE-A1 peptide on HLA-A*02:01
Test: MAGE-A1 Dextramer gradient on transduced JKR9; unit inferred; full-length, on cells

EC50 of Dextramer staining | Binder
0.0475 nM | B1
0.0961 nM | B2
0.103 nM | B3
0.0808 nM | B4
0.212 nM | B5
0.163 nM | B6

What follows are binders tested against MAGE-A1 Dextramer (human) (assay: MAGE-A1 Dextramer gradient staining (MFI) of cells expressing the TCR, flow cytometry).

EC50 | Binder
0.0475 nM | B1
0.0961 nM | B2
0.103 nM | B3
0.0808 nM | B4
0.212 nM | B5
0.163 nM | B6
